Columns and labels:
Details in all cases: Zea mays
[1] = substrate: NCc1ccc(O)cc1
[2] = substrate: COc1cccc(CN)c1
[3] = substrate: COc1ccc(CN)cc1
[4] = substrate: COc1ccc(CNc2ncnc3c2ncn3C2CCCCO2)cc1
[5] = substrate: O[C@@H]1[C@H](O)[C@H](O)CO[C@H]1n1cnc2c(NCc3ccccc3)ncnc21
[6] = substrate: CC(C)=CCNc1ncnc2[nH]cnc12
[7] = substrate: c1ccc(CNc2ncnc3c2ncn3C2CCCCO2)cc1
[8] = substrate: Oc1cccc(CNc2ncnc3nc[nH]c23)c1
[9] = substrate: c1ccc(CNc2ncnc3[nH]cnc23)cc1
[10] = substrate: COc1cccc(CNc2ncnc3c2ncn3C2CCCCO2)c1
[11] = substrate: Oc1ccc(CNc2ncnc3c2ncn3C2CCCCO2)cc1
[12] = substrate: Oc1cccc(CNc2ncnc3c2ncn3C2CCCCO2)c1
[13] = substrate: CC(C)=CCNc1ncnc2[nH]cnc12; remark: listed apart in the source
[14] = substrate: c1ccc(CNc2ncnc3c2ncn3C2CCCCO2)cc1; remark: listed apart in the source
[15] = substrate: Oc1cccc(CNc2ncnc3nc[nH]c23)c1; remark: listed apart in the source
[16] = substrate: c1ccc(CNc2ncnc3[nH]cnc23)cc1; remark: listed apart in the source
[17] = molecular target: 6-(4-hydroxybenzylamino)purine
[18] = substrate: Oc1ccc(CNc2ncnc3c2ncn3C2CCCCO2)cc1; remark: listed apart in the source
[19] = substrate: Oc1cccc(CNc2ncnc3c2ncn3C2CCCCO2)c1; remark: listed apart in the source
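Throughout, for Km: zea mays CKX1 produced in Pichia pastoris, enzyme activity followed as aldehyde formation detected with the 4-aminophenol method.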

B1: Cytokinin dehydrogenase 1 (Zea mays), Q9T0N8 (protein)
chain: MAVVYYLLLAGLIACSHALAAGTPALGDDRGRPWPASLAALALDGKLRTDSNATAAASTDFGNITSALPAAVLYPSSTGDLVALLSAANSTPGWPYTIAFRGRGHSLMGQAFAPGGVVVNMASLGDAAAPPRINVSADGRYVDAGGEQVWIDVLRASLARGVAPRSWNDYLYLTVGGTLSNAGISGQAFRHGPQISNVLEMDVITGHGEMVTCSKQLNADLFDAVLGGLGQFGVITRARIAVEPAPARARWVRFVYTDFAAFSADQERLTAPRPGGGGASFGPMSYVEGSVFVNQSLATDLANTGFFTDADVARIVALAGERNATTVYSIEATLNYDNATAAAAAVDQELASVLGTLSYVEGFAFQRDVAYAAFLDRVHGEEVALNKLGLWRVPHPWLNMFVPRSRIADFDRGVFKGILQGTDIVGPLIVYPLNKSMWDDGMSAATPSEDVFYAVSLLFSSVAPNDLARLQEQNRRILRFCDLAGIQYKTYLARHTDRSDWVRHFGAAKWNRFVEMKNKYDPKRLLSPGQDIFN
[1]
  Km: 5.5 µM
  kcat: 0.871 s⁻¹
[2]
  kcat: 0.145 s⁻¹
[3]
  kcat: 0.476 s⁻¹
[4]
  kcat: 0.256 s⁻¹
[5]
  kcat: 0.218 s⁻¹
[6]
  Km: 1.8 µM
  kcat: 0.208 s⁻¹
[7]
  Km: 98.9 µM
  kcat: 0.069 s⁻¹
[8]
  Km: 24.4 µM
  kcat: 0.244 s⁻¹
[9]
  Km: 29.6 µM
  kcat: 0.225 s⁻¹
[10]
  kcat: 0.006 s⁻¹
[11]
  Km: 33.8 µM
  kcat: 0.195 s⁻¹
[12]
  Km: 125 µM
  kcat: 0.032 s⁻¹
[13]
  kcat/Km: 0.116
[14]
  kcat/Km: 0.0007
[15]
  kcat/Km: 0.01
[16]
  kcat/Km: 0.0076
[17]
  kcat/Km: 0.158
[18]
  kcat/Km: 5800 M⁻¹ s⁻¹
[19]
  kcat/Km: 0.0003
